From publication PMC4643364 (Cancer cell, 2015)

Target: T1, EphB4 labelled with NT-647 dye (UniProt P54760 16-539, NT-647 dye through primary amide coupling)
T1 sequence (looked up): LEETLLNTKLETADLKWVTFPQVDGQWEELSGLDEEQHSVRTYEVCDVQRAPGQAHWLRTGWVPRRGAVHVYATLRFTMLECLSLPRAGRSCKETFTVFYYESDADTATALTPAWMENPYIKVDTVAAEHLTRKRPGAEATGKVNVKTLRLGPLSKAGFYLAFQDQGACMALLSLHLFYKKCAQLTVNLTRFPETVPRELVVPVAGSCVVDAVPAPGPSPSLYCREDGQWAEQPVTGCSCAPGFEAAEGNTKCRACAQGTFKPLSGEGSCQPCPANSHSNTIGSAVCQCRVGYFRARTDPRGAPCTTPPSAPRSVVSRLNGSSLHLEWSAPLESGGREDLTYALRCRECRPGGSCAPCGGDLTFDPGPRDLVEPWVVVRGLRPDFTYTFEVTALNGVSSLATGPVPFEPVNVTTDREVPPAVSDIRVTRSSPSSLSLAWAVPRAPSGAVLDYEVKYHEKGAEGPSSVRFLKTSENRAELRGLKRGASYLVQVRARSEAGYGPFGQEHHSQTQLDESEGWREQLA
Assay: MST

B1: EphrinB2/Fc, purified recombinant protein (Fc fusion, UniProt P52799 28-229, looked up)
chain: IVLEPIYWNSSNSKFLPGQGLVLYPQIGDKLDIICPKVDSKTVGQYEYYKVYMVDKDQADRCTIKKENTPLLNCAKPDQDIKFTIKFQEFSPNLWGLEFQKNKDYYIISTSNGSLEGLDNQEGGVCQTRAMKILMKVGQDASSAGSTRNKDPTRRPELEAGTNGRSSTTSPFVKPNPGSSTDGNSAGHSGNNILGSEVALFA
Kd: 140 nM
